Test results: patent publication US20100184651A1, “TARGETED FUSION PROTEINS FOR CANCER THERAPY” (Dabur Pharma Limited, priority 2005, published 2010)

Assays:
[1] = tested on: normal murine cell line, NIH3T3; assay: MTT cytotoxicity assay, NIH3T3; format: cell-based, mouse; conditions: NIH3T3, 24 h treatment
Experimental: Subsequently, cytotoxicity of this protein was determined on cell lines over expressing the VIP receptor like colon carcinoma cell line, HT29 and non small cell lung carcinoma cell line, A549 and compared with a normal murine cell line, NIH3T3, by a quantitative MTT assay. […] Different sensitivities of the two cell lines may be attributed to the differential expression of the VPAC1 receptors and the inherent sensitivity of the cell lines.
Cells were seeded in 96-well microplates, followed by the addition of various concentrations of the fusion protein. After a 24-hour incubation, the MTT assay was performed according to the method of Mosmann [Mosmann T, J Immunol. Methods, 1983, 55-63]. Serial dilutions of chemotherapeutic agents prepared by the Multiplication method were placed in a 96-well microplate. Since the cell lines employed in the present study had different proliferation rates, the number of cultured cells was adjusted to a density that allowed the untreated control cells to grow exponentially. […] Then 200 μl of DMSO was added, and the absorbance was determined at a wavelength of 540 nm using an ELISA reader. Results were expressed as the percent survival of the control experiments in which the cells were not exposed to any protein. […]

[2] = target: T1, VPAC 1 receptors expressed on A549 cells (Homo sapiens, UniProt P32241); assay: Immunocytochemical staining for cell surface receptors on A549 cells; format: binding
T1 construct: the receptors were overexpressed in the A549 cell line; endogenous in cells; host or cells: A549 human lung carcinoma cells (acetone-fixed on slides)
T1 sequence (P32241 31-457): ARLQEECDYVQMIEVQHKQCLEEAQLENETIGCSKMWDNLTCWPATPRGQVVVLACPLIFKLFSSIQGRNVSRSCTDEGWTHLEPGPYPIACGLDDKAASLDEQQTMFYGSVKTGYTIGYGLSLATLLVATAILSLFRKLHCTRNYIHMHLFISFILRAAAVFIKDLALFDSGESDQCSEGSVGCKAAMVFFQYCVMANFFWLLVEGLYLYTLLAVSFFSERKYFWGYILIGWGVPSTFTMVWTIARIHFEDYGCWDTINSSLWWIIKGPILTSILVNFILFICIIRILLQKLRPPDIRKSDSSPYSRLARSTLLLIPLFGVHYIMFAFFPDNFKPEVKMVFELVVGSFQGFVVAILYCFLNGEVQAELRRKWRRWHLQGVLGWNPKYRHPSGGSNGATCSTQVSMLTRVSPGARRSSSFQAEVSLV
Experimental: Similarly, when, the cells were treated with fusion protein and immuno-stained with anti-BID. […] A similar observation was made when A549 cells were pre-treated with VIP antagonist, VIP (10-28) followed by fusion protein and immunostaining with anti-BID (FIG. 15e).
Cultured (A549 human lung carcinoma) cells were detached with trypsin/EDTA and pelleted by low-speed centrifugation. The cells were resuspended in PBS. Cell suspensions were coated onto poly-L-lysine coated glass slides, dried and then fixed for 10 min in acetone at −20° C. After drying for 2 h, slides were rinsed in PBS and then treated for 5 min with water/H2O2 in order to block endogenous peroxidase. Slides were again rinsed again in PBS and treated with normal rabbit and goat serum to block background staining. Slides were then incubated with antagonist, VIP(10-28) and/or fusion protein for 1 hr each. Slides were again washed with PBS and incubated with rabbit-anti-BID antibody (dilution 1:1000) or goat anti-VPAC 1 antibody (dilution 1:1000) for 1 h. Slides were again washed in PBS and incubated with […] IgG peroxidase labelled antibodies for anti-BID and anti-VPAC 1 primary antibodies respectively, for 1 h followed by addition of the 3,3′-diaminobenzidine-tetrachloride (DAB) substrate and hydrogen peroxide in PBS. […]

[3] = target: T2, recombinant human cathepsin D (Homo sapiens, UniProt P07339); assay: Cleavage at the linker site with recombinant human cathepsin D, followed by LC-MS; format: biochemical; conditions: cathepsin D at a ratio of ~400:1 (w/w), pH 3.5, 37° C.
T2 construct: purchased R&D Systems, Abingdon, UK
Experimental: To evaluate the role of the linker used we carried out an in vitro digestion of the protein with cathepsin D at a ratio of ˜400:1 (w/w) and followed the cleavage by mass spectrometry as a function of time (FIG. 16). The first cleavage occurred at the linker by around 30 minutes of treatment with the protease, giving two peptides of 3914.4 Da (FIGS. 17a) and 4477 Da (FIG. 17b), which corresponded to M (1-34) L (expected mass 3915.5 Da) and L (35-71) H (expected mass 4475 Da) peptides respectively although the majority of the protein was still intact (FIG. 17c), which justified our design of the protein. Subsequently, the protein was cleaved at other sites as mapped by mass spectrometry till 2 H of digestion (FIGS. 18a-e, 19).
LC/MS analyses were carried out using a Waters 2695 high-perfomance liquid chromatography (HPLC) system (Milford, USA) and Micromass Quattro Micro mass spectrometer (Micromass, UK) using a ZORBAX Eclipse XDB-C18 (4.6×150 mm, 5 μM) column. Mobile phase solvents were 0.1% HCOOH in Milli Q Water (A) and 0.1% HCOOH in Acetonitrile (B). Fusion protein was eluted using a linear gradient program: 0 min 100% A; 60 min 100% B; 60-75 min 100% A, at a constant flow rate of 1.2 mL min^−1, and a volume of 50 μl was directed to the detector of the mass spectrometer. […]

[4] = tested on: A549 cells; assay: Mitochondrial membrane potential analysis with JC-1 dye; format: cell-based, human; conditions: dose dependent
Experimental: After having determined the role of the targeting VIP peptide and the cathepsin cleavable linker we investigated the role of the apoptotic BID peptide. In this regard, we monitored the mitochondrial membrane potential of the cells on treatment with fusion protein using JC-1 dye.
Aliquots of cell suspensions were incubated with 4 μM of JC-1, a specific MMP dependent fluorescence dye [Hortelano S. et al., FEBS Lett, 1997, 411: 77-82], for 30 min at 37° C. and washed once in PBS. Mitochondrial depolarization was qualitatively estimated by fluorescence microscopy with a long-pass filter. […] JC-1 forms aggregates in cells with a high red fluorescence (585 nm) indicating a normal MMP. MMP loss results in a reduction in red fluorescence with a concurrent gain in green fluorescence (530 nm) as the dye shifts from aggregates to monomeric state. Therefore, retention of the dye in the cells can be monitored through the increase in green fluorescence. The fluorescence was measures using Varioskan spectrofluorimeter (Thermo Electron Corporation, Waltham, Mass. USA) and the data was converted to density plots.

T2 sequence (P07339 65-412): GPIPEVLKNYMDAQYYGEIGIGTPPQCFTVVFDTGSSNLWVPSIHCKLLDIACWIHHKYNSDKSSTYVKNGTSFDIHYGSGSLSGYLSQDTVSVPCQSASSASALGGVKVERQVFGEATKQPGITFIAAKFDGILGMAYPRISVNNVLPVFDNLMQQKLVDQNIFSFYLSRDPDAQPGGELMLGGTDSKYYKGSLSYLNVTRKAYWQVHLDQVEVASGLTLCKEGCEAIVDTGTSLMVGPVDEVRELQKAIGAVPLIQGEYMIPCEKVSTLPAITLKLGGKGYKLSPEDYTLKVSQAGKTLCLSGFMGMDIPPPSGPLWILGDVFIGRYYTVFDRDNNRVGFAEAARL

B1: fusion protein: 71 amino acid recombinant polypeptide: VIP, cathepsin cleavable linker SLLIARRMPNFN, BH3 domain of BID, His tag (SEQ ID NO: 10) (protein)
chain: MHSDAVFTDNYTRLRKQMAVKKYLNSILNGSSLLIARRMPNFNEDIIRNIARHLAQVGDSMDRLEHHHHHH
modifications: This amino acid sequence was artificially generated using naturally occurring mature human VIP peptide produced in E.coli as fusion protein
Q: How did the IC50 [1] turn out when B1 was run?
A: > 30 µM

Q: What about the “availability of VPAC-1 receptors to anti VPAC-1 after pre-treatment” value ([2]; A549 cells pre-treated, then anti-VPAC-1 immunostaining) of the same molecule?
A: significant loss in the immunostained cell population

Q: And the “immunostaining with anti-BID after treatment of cells” value ([2]; A549 cells treated with fusion protein, anti-BID)?
A: localization of the protein on the cells

Q: And the “time of first cleavage at the linker” value [3]?
A: around 30 minutes

Q: What about the “effect on mitochondrial membrane potential” value [4] of the same molecule?
A: decreasing the mitochondrial membrane potential
